We go through three molecules from publication PMC4974056, “The proposed channel-enzyme transient receptor potential melastatin 2 does not possess ADP ribose hydrolase activity” (eLife, 2016).

A word on the kcat: it is the maximal rate divided by the concentration of active sites.

The nature of series [1]: Enzymatic activity assay using colorimetric detection of inorganic phosphate (Pi assay, coupled to alkaline phosphatase). Format: biochemical. Conditions: 5 or 50 nM protein co-applied with 1 mM ADPR and AP, 30 min, pH 6.5-9.0, 37°C or RT. How it is done: The ADPRase activities of the same proteins were additionally tested with a more sensitive assay based on colorimetric detection of Pi (Pi assay) liberated from both ADPRase products AMP and R5P by co-applied alkaline phosphatase (AP) ([Rafty et al., 2002]). AP liberates Pi from AMP and R5P, but not from intact ADPR: thus, Pi is produced from hydrolyzed ADPR at a molar ratio of 1:2. In brief, 150-μl reaction volumes containing 5 or 50 nM purified protein, 5–6 U bovine AP, 1 mM Na-ADPR, 16 mM MgCl2, and 50 mM reaction buffer at various pH values (MES 6.5, HEPES 7.1, Tris 8.5, and Tris 9.0) were incubated for 30 min at either 37°C or room temperature. The reaction was stopped and Pi visualized by adding 850 μl coloring solution (6:1 vol/vol ratio mixture of 0.42% ammonium molybdate tetrahydrate in 1N H2SO4 and 10% L-ascorbic acid) followed by incubation for 20 min at 45°C. Optical density was then measured at 820 nm (NanoPhotometer P300, Implen GmbH, Munich, Germany). Coloring solution was freshly made, and standard curve (0.050–2 mM KH2PO4) obtained, daily. […]
Molecular turnover rates (kcat) for NUDT9 were calculated from the [Pi] released in samples containing 5 nM NUDT9, in which [ADPR] remained >0.9 mM (i.e., saturating [[Perraud et al., 2003]]) throughout the 30-min incubation period, using the equation kcat = 0.5[Pi]released/5 nM/1800 s.

Details of series [2]: method as in Perraud et al., 2001, 2003. Conditions: ref Perraud et al., 2001, 2003, cited from earlier work.
Series [3] is described as follows: Solubility of recombinant proteins expressed in E.coli. Format: physicochemical. Conditions: for Soluble: expressed in E.coli, Table 1. As to the method:
The soluble proteins (NUDT9 and Chi2) were expressed and purified as previously described for mitochondrial NUDT9 ([Tóth et al., 2014]). In brief, bacterial cultures were grown at 37°C in Luria-Bertani medium supplemented with the appropriate antibiotic and induced with 1 mM isopropyl-β-D-1-thiogalactopyranoside (IPTG) upon reaching OD600 of ~0.7. After 3 hr of incubation, cells were harvested and lysed with sonication in 20 mM Tris (pH 8.5 with HCl) / 200 mM NaCl. The cleared supernatant was incubated with Ni-Sepharose 6 Fast Flow resin (GE Healthcare Hungary, Hungary) for 3 hr under gentle rotation. The resin was then washed with lysis buffer supplemented with 20 mM imidazole, and the protein eluted with a buffer containing 20 mM Tris (pH 8.5 with HCl), 100 mM NaCl, and 400 mM imidazole.
Chi3S, Chi4S and NUDT9H were little soluble to insoluble when expressed at 37°C, the majority of the proteins ending up in inclusion bodies, but gave tractable (~1–5%) soluble fractions when induced with 0.1 mM IPTG at 25°C overnight. NUDT9H was then purified as NUDT9. Chi3S and Chi4S were purified using Strep-Tactin chromatography following the manufacturer’s instructions (IBA GmbH, Göttingen, Germany).

The nature of series [4]: Enzymatic (ADPRase) activity assay using thin-layer chromatography (TLC). In kind it is biochemical. Conditions: for ADPRase activity (conversion of ADPR into AMP and R5P, TLC): 1 μM protein, 16 mM Mg2+, 2-hr incubation, pH 6.5, 7.1 and 8.5, absence or presence of 100 mM NaCl; for ADPRase activity (conversion of ADPR into AMP and R5P, TLC) / kcat: 10 mM ADPR, room temperature; for Enzyme: Table 1 summary of ADPRase activity; for kcat: 0.5 μM protein. How it is done: (§1) ADPRase activities of mitochondrial NUDT9, NUDT9H, and the purified chimeric constructs (Chi2, Chi3S, Chi4S) were quantitated by densitometric detection of the AMP product on TLC sheets. The 20-μl reaction mixtures contained 0.1, 0.5 or 1 μM purified protein, 10 mM Na-ADPR (Sigma-Aldrich, St. Louis, MO, USA), 16 mM MgCl2, and 50 mM reaction buffer (RB). The reaction buffers used were: 50 mM MES, pH 6.5 with NaOH (RB1); 50 mM HEPES, pH 7.1 with NaOH (RB2); 50 mM Tris, pH 8.5 with HCl (RB3); RB1 + 100 mM NaCl (RB4); RB2 + 100 mM NaCl (RB5), and RB3 + 100 mM NaCl (RB6). For the enzyme kinetics experiments on NUDT9 and Chi2, aliquots from the reaction mixtures were collected at the indicated time points; 3 independent experiments were performed for both proteins and each condition, and data are presented as mean ± SEM. All incubations were at room temperature (~25°C). For TLC, 1-μl aliquots of reaction mixtures were placed on Polygram SIL G/UV254 plates (Macherey-Nagel, Düren, Germany), dried and developed in 0.2 M NH4HCO3 in ethanol:water 7:3 (vol/vol). Nucleotides were visualized under UV light. Densitometry of nucleotide intensities was done using ImageJ software.

For series [5], the target named is T1, T5L-TRPM2 (Homo sapiens, UniProt O94759, G984L/INS985E/Y985D). On the set-up: method as in Tóth and Csanády, 2012. The settings on record: previously established; ref Tóth and Csanády, 2012; read-out: half-saturating concentration; cited from earlier work.
A short description of series [6]: Spontaneous ADPR degradation at basic pH (TLC and Pi assay, no ADPRase). Format: physicochemical. How it is done:
as §1
The ADPRase activities of the same proteins were additionally tested with a more sensitive assay based on colorimetric detection of Pi (Pi assay) liberated from both ADPRase products AMP and R5P by co-applied alkaline phosphatase (AP) ([Rafty et al., 2002]). AP liberates Pi from AMP and R5P, but not from intact ADPR: thus, Pi is produced from hydrolyzed ADPR at a molar ratio of 1:2. In brief, 150-μl reaction volumes containing 5 or 50 nM purified protein, 5–6 U bovine AP, 1 mM Na-ADPR, 16 mM MgCl2, and 50 mM reaction buffer at various pH values (MES 6.5, HEPES 7.1, Tris 8.5, and Tris 9.0) were incubated for 30 min at either 37°C or room temperature. The reaction was stopped and Pi visualized by adding 850 μl coloring solution (6:1 vol/vol ratio mixture of 0.42% ammonium molybdate tetrahydrate in 1N H2SO4 and 10% L-ascorbic acid) followed by incubation for 20 min at 45°C. Optical density was then measured at 820 nm (NanoPhotometer P300, Implen GmbH, Munich, Germany). Coloring solution was freshly made, and standard curve (0.050–2 mM KH2PO4) obtained, daily. Reactions with 1 mM AMP or R5P (instead of ADPR) served as positive controls. All reagents were from Sigma-Aldrich.

For a further series, the target named is T5L-TRPM2-Chi2 (Homo sapiens, UniProt O94759+Q9BW91, G984L/INS985E/Y985D, form not given). In words: Excised inside-out patch-clamp recordings, ADPR-dependent channel activation. Format: cell-based. The settings on record: current in 1 μM ADPR divided by that in 32 μM ADPR; compared to TRPM2. The text has this: The noninactivating TRPM5-like pore mutant of TRPM2 (T5L-TRPM2) was contained in the pGEMHE vector ([Tóth and Csanády, 2012]). The NUDT9H domain of TRPM2 was replaced by Chi2A, Chi3 or Chi4 using the native BlpI-site upstream of the domain and an XbaI-site downstream of the Stop-codon in each chimeric construct. Single-base mutations to generate Stop-codons immediately upstream of the hexahistidine tags of Chi3 and Chi4 were then introduced (QuickChange II, Agilent Technologies, Santa Clara, CA, USA), yielding TRPM2-Chi3 and TRPM2-Chi4; TRPM2-Chi2 lacked a His-tag because it was derived from Chi2A.
(§2) Oocytes isolated from anaesthetized Xenopus laevis were digested with collagenase, injected with 10–70 ng cRNA, and stored at 18°C. Recordings were done 2–3 days after injection.
The tip of the patch pipette was filled to ~1 cm height with 140 mM Na-gluconate, 2 mM Mg-gluconate2, 10 mM HEPES (pH 7.4 with NaOH); free [Ca^2+] ~4 μM. The pipette electrode was placed into a 140-mM NaCl-based solution carefully layered on top. […] Macroscopic TRPM2 currents were recorded at 25°C at a membrane potential of −20 mV. […]
Dose dependence of ADPR-induced current activation, expressed as the ratio of mean macroscopic currents observed in the presence of various test [ADPR] […]
A general note: The patch-clamp technique gives a direct electrical read-out from membranes.

The target in series [7] is T1, T5L-TRPM2. The description is as above. In kind it is cell-based. How it is done:
as §2
The tip of the patch pipette was filled to ~1 cm height with 140 mM Na-gluconate, 2 mM Mg-gluconate2, 10 mM HEPES (pH 7.4 with NaOH); free [Ca^2+] ~4 μM. The pipette electrode was placed into a 140-mM NaCl-based solution carefully layered on top. Bath solution contained 140 mM Na-gluconate, 2 mM Mg-gluconate2, 10 mM HEPES (pH 7.1 with NaOH), and either 1 mM EGTA (to obtain 'zero' (~8 nM) Ca^2+) or 1 mM Ca-gluconate2 (to obtain 125 μM free Ca^2+) ([Csanády and Törocsik, 2009]). Na-ADPR was used at final concentrations of 0.32, 1, 3.2, 10, 32, 100, or 1000 μM, and the Na^+ salt of ε-ADPR at 100 μM. Macroscopic TRPM2 currents were recorded at 25°C at a membrane potential of −20 mV. Currents were amplified, filtered at 2 kHz (Axopatch 200B), digitized at 10 kHz (Digidata 1322A), and stored to disk (Pclamp9, Molecular Devices, Sunnyvale, CA, USA).
Dose dependence of ADPR-induced current activation, expressed as the ratio of mean macroscopic currents observed in the presence of various test [ADPR] (I) and 32 (or 100) μM ADPR (Imax) in the same patch, was fitted to the Hill equation (I/Imax = [ADPR]^n/(K^n+[ADPR]^n). Dose dependence of ADPR-activation in the presence of 100 μM ε-ADPR was expressed as the ratio of the currents observed in the presence of various test [ADPR] + 100 μM ε-ADPR (I) and 100 μM ADPR alone (Imax) in the same patch, and was fitted to the Hill equation substituting K' = K(1+[ε-ADPR]/KI) instead of K (K and n fixed to their control values). Macroscopic current decay time courses following removal of ADPR or Ca^2+ were fitted by single exponentials using the method of least squares.

Where “and” joins values, the source holds several entries; their conditions need not be identical. Equal entries are not always repeated. Where two headings read alike, the source gives them in different places.

T1 sequence (O94759 whole entry, stated change not applied): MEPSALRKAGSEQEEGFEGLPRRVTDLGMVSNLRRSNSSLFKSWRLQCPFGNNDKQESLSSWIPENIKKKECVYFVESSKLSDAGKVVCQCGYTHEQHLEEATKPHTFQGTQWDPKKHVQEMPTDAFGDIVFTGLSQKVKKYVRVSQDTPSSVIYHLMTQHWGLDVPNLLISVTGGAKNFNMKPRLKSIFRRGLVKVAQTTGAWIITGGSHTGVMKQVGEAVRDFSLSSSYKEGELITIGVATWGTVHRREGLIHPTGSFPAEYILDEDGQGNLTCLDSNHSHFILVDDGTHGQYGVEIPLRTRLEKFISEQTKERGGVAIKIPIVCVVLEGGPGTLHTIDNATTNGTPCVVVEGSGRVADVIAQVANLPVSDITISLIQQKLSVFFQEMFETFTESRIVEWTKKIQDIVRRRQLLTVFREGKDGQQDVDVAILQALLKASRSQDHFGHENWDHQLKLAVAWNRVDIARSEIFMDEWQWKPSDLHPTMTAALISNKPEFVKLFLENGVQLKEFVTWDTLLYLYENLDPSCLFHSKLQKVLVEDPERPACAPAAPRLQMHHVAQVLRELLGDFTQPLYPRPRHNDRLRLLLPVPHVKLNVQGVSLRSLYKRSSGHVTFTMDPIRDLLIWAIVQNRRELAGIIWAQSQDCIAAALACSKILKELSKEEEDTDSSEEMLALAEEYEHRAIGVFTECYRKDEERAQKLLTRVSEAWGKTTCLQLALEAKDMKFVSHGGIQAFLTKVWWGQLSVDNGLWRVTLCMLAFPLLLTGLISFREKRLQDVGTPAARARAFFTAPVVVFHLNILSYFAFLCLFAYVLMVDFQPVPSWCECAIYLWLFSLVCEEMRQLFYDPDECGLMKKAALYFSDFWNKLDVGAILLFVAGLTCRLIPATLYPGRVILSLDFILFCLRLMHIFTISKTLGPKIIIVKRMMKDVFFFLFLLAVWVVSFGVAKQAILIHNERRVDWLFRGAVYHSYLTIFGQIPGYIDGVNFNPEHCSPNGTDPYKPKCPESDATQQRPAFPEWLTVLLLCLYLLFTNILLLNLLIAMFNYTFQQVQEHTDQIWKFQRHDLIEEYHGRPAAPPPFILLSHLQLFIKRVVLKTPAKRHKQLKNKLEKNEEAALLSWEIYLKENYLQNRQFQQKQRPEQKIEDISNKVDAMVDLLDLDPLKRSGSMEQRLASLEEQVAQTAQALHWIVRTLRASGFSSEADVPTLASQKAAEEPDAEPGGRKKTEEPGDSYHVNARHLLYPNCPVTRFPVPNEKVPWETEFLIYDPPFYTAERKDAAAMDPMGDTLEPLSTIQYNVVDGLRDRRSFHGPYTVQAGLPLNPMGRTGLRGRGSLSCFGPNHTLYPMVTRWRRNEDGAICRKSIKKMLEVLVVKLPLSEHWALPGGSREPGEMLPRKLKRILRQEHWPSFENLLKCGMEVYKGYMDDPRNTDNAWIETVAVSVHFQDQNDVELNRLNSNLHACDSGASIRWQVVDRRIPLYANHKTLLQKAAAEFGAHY
Sequence of T5L-TRPM2-Chi2 (O94759 1-1353, stated change not applied, one chain of several): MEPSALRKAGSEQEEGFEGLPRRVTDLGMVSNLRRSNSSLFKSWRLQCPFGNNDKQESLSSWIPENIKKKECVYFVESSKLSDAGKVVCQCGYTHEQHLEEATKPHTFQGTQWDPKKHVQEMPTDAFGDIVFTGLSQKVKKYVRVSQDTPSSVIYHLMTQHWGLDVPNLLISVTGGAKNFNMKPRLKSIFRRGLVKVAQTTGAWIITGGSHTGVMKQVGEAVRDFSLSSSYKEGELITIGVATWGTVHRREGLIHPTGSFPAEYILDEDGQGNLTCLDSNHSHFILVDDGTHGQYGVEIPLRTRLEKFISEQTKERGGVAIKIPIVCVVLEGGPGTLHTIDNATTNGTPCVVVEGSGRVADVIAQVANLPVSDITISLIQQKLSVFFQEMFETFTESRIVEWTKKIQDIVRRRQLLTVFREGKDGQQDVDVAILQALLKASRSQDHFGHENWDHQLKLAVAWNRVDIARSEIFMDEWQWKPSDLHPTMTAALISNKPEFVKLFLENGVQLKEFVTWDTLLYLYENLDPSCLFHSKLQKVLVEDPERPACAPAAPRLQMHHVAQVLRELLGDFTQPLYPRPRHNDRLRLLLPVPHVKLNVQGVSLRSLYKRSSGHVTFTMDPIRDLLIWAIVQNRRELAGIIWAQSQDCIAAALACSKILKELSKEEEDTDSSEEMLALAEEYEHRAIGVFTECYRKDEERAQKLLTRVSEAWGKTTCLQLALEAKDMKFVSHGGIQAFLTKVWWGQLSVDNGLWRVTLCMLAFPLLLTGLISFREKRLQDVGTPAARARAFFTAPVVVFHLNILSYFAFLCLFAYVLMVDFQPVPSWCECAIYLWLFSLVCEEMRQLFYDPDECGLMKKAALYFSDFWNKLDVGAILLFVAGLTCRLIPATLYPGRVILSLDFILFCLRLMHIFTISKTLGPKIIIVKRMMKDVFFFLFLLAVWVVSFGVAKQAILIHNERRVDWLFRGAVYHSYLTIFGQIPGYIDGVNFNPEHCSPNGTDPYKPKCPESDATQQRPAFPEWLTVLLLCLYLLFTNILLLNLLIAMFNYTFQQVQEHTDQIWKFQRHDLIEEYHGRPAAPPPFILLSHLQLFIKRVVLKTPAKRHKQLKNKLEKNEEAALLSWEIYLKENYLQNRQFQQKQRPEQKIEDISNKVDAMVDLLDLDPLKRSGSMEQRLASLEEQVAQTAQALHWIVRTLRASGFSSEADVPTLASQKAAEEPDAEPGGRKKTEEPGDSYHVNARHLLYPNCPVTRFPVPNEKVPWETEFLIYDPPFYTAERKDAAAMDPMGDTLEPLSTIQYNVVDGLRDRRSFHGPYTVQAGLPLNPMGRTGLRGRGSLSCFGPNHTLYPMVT

In the case of “NUDT9H: isolated C-terminal cytosolic NUDT9-homology domain of TRPM2, recombinant, hexahistidine tag”, the Pi release entry in series [1] was “did not result in any significant Pi release”. The reported turnover rate in series [2] (isolated NUDT9H) is ~ 0.1 s^-1. Further, in series [2] (pH 9 and 37°C), the kcat is listed as ~ 0.06 s^-1. For the same molecule, in series [2], the “reported enzymatic activity, lower than that of NUDT9” value is listed as “about 100 fold”. The “stability of purified soluble preparation” value in series [3] (4°C) was “precipitated overnight at 4 °C”. The Soluble result in series [3] is reported as “No^¶”. Also, in series [4], the “ADPRase activity (conversion of ADPR into AMP and R5P, TLC)” value was “failed to hydrolyze the nucleotide”; the Enzyme entry is “No”.
Take `Nc1ncnc2c1ncn2C1OC(COP(=O)(O)OP(=O)(O)OCC2OC(O)C(O)C2O)C(O)C1O` (centres unmarked) [ADPR, adenosine 5'-diphosphoribose]: the EC50 at T5L-TRPM2 [5] was 1000 nM; on T5L-TRPM2 [7] (inside-out patches from Xenopus laevis oocytes, saturating Ca2+, −20 mV, Hill fit (Figure 7H), read-out: K1/2 for ADPR-induced current activation) it was 1300 ± 100 nM. In addition, the “spontaneous hydrolysis of applied ADPR (Pi assay)” value in series [6] (1 mM ADPR, 30 min, with AP, with or without Chi4S or NUDT9H) is recorded as ~ 1%. Also, the spontaneous degradation is reported as ~ 0.3% in series [6] (25°C and pH 8.5, 20 min); ~ 2% in series [6] (25°C, pH 8.5, 2 hr); ~ 1% in series [6] (37°C and pH 9, 30 min). In addition, in series [6] (25°C and pH 8.5, assuming exponential decay), the “time constant for spontaneous ADPR hydrolysis” value was ~ 100 hr. Moreover, the “decay time constant of spontaneous degradation” value in series [6] (25°C, pH 8.5) is “about 100 h”. In addition, the ADPR degraded spontaneously in series [6] (25°C, pH 8.5, 24 hr) was ~ 20%. The “AMP which forms spontaneously” value in series [6] (20 min, pH 8.5, 10 mM ADPR) is ~ 30 μM. Also, the stability entry in series [6] (neutral or slightly acidic pH) is on record as “inherently stable”. Moreover, the “Fractional activation by 1 μM ADPR” value on T5L-TRPM2-Chi2 is “reduced”. In addition, the “n (Hill slope for ADPR binding)” value at T5L-TRPM2 [7] (Figure 8B) amounted to 1.3±0.1.

B1: NUDT9: soluble, Mg2+-dependent mitochondrial ADPR pyrophosphatase, recombinant, C-terminal hexahistidine tag (protein)
chain: ENSHNKARTSPYPGSKVERSQVPNEKVGWLVEWQDYKPVEYTAVSVLAGPRWADPQISESNFSPKFNEKDGHVERKSKNGLYEIENGRPRNPAGRTGLVGRGLLGRWGPNHAADPIITRWKRDSSGNKIMHPVSGKHILQFVAIKRKDCGEWAIPGGMVDPGEKISATLKREFGEEALNSLQKTSAEKREIEEKLHKLFSQDHLVIYKGYVDDPRNTDNAWMETEAVNYHDETGEIMDNLMLEAGDDAGKVKWVDINDKLKLYASHSQFIKLVAEKRDAHWSEDSEADCHAL
modifications: left off: His6, C-terminal, kept
notes: soluble, Mg2+-dependent mitochondrial ADPR pyrophosphatase, recombinant, C-terminal hexahistidine tag
Take B1: the kcat was ~ 8 s^-1 in series [2] (previously reported values); 6.4 s⁻¹ in series [4] (pH 6.5 (RB1)); 7.6 s⁻¹ in series [4] (pH 7.1 (RB2)); 9 s⁻¹ and 9.0 s⁻¹ in series [4] (pH 8.5 (RB3)). In addition, the Soluble entry in series [3] is given as “Yes”. For the same molecule, the “ADPRase activity (conversion of ADPR into AMP and R5P, TLC)” value in series [4] is recorded as “active ADPRases”. The “decrease of kcat from pH 8.5 to 6.5” value in series [4] (TLC kinetics) is reported as ~ 1.4 fold. Further, the Enzyme entry in series [4] is listed as “Yes”.
